What was measured:
[1] = target: T1, recombinant human LTBP1-proTGFβ1 complex (human, UniProt Q14766 347-1721; P01137 30-390); test: Octet (BLI); IgG1 from yeast
T1 construct: Biotinylated in the Octet and MSD-SET assays; In the potency assay it was made by cells transfected with human LTBP1S and proTGFβ1 plasmids and deposited in the ECM; also called hLTBP1; hLTBP1-proTGFβ1

[2] = target: T2, recombinant human GARP-proTGFβ1 complex (human, UniProt Q14392 20-627; P01137 30-390, limits assumed); test: Octet (BLI); IgG1 from yeast
T2 construct: Purified complex of the Octet and MSD-SET assays, biotinylated; also called hGARP; hGARP-proTGFβ1
T2 sequence (Q14392 20-627 limits assumed, chain 1 of 2): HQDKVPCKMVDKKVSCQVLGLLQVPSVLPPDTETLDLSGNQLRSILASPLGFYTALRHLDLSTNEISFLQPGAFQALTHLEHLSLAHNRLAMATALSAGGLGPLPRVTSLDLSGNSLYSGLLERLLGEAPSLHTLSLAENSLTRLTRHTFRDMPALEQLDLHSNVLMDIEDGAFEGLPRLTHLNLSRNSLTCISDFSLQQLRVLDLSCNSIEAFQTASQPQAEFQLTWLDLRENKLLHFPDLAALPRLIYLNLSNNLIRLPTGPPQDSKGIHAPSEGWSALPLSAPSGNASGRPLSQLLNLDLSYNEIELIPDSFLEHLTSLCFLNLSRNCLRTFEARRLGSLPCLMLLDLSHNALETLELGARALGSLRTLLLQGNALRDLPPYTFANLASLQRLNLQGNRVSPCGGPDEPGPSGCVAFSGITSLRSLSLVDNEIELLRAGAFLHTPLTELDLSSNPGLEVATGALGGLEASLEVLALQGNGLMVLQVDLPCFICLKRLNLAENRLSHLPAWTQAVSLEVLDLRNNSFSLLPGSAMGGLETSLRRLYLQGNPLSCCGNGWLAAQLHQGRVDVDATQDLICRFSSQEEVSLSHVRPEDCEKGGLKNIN
T2 sequence (P01137 30-390 limits assumed, chain 2 of 2): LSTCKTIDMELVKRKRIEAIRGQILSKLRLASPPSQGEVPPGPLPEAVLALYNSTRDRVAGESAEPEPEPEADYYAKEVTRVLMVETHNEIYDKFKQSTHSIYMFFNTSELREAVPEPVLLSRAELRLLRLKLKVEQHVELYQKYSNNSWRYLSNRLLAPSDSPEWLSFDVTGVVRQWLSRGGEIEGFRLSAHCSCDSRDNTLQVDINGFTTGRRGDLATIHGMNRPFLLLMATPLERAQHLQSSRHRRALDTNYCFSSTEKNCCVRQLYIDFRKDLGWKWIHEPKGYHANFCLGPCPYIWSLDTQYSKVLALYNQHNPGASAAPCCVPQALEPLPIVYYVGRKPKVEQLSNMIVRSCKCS

[3] = target: T3, recombinant human LTBP3-proTGFβ1 complex (human, UniProt Q9NS15 44-1303; P01137 30-390, limits assumed); test: Octet (BLI); IgG1 from yeast
T3 construct: Biotinylated in the Octet and MSD-SET assays; In the potency assay it was made by cells transfected with human LTBP3 and proTGFβ1 plasmids and deposited in the ECM; also called hLTBP3; hLTBP3-proTGFβ1
T3 sequence (Q9NS15 44-1303 limits assumed, chain 1 of 2): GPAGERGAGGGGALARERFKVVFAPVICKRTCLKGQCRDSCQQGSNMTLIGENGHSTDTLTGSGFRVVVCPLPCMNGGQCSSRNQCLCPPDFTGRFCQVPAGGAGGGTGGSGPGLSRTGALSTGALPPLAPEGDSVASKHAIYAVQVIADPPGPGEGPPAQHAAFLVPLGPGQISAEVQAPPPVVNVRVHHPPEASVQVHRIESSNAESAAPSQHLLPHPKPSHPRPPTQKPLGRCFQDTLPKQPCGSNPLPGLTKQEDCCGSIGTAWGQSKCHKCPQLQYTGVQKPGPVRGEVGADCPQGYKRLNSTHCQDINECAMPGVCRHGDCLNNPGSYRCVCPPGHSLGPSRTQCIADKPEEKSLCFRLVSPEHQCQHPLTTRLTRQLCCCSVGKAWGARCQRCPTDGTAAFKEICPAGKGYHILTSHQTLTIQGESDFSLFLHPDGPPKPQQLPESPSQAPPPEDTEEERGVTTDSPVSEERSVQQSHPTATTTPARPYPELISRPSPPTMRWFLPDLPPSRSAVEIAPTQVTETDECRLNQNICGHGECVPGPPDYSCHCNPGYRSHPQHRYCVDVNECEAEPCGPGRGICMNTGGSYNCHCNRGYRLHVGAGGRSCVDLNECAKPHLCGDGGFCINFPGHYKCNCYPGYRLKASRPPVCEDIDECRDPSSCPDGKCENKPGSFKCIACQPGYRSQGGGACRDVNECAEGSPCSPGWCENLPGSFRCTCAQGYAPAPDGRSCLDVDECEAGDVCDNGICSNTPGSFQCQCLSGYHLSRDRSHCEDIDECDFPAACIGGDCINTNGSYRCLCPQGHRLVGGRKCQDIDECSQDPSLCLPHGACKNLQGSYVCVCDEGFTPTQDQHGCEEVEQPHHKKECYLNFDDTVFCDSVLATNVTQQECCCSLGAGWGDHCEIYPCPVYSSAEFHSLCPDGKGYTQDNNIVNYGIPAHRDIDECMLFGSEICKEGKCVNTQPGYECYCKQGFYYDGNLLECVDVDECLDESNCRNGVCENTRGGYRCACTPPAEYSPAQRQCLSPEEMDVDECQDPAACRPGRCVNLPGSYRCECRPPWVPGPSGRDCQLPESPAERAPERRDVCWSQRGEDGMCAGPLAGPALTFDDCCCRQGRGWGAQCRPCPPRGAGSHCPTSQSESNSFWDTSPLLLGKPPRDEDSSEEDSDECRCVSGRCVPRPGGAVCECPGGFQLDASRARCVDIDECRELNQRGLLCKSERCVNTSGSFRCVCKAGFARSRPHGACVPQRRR
T3 sequence (P01137 30-390 limits assumed, chain 2 of 2): as the sequence (P01137 30-390 limits assumed, chain 2 of 2) above

[4] = target: T4, recombinant human LRRC33-proTGFβ1 complex (human, UniProt Q86YC3 19-650; P01137 30-390, limits assumed); test: Octet (BLI); IgG1 from yeast
T4 construct: Purified complex of the Octet and MSD-SET assays, biotinylated; also called hLRRC33; hLRRC33-proTGFβ1
T4 sequence (Q86YC3 19-650 limits assumed, chain 1 of 2): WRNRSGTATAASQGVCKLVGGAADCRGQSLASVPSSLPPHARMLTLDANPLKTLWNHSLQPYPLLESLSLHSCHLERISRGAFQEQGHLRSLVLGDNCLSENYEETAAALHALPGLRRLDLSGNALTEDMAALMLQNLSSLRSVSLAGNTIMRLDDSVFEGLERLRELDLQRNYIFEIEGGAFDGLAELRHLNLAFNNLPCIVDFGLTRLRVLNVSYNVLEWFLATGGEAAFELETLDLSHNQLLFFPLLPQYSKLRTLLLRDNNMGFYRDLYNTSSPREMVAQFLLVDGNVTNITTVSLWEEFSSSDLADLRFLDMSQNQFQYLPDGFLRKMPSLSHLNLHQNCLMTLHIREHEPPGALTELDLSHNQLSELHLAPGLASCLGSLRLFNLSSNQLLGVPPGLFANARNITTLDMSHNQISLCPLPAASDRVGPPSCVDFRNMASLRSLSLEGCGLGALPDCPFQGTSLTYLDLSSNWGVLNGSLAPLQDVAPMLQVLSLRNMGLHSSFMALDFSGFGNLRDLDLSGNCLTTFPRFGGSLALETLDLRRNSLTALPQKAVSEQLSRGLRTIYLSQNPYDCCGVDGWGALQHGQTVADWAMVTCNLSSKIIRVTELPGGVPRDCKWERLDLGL
T4 sequence (P01137 30-390 limits assumed, chain 2 of 2): as the sequence (P01137 30-390 limits assumed, chain 2 of 2) above

[5] = target: T1, recombinant human LTBP1-proTGFβ1 complex; test: MSD-SET; IgG4 from mammalian cells
[6] = target: T2, recombinant human GARP-proTGFβ1 complex; test: MSD-SET; IgG4 from mammalian cells
[7] = target: T3, recombinant human LTBP3-proTGFβ1 complex; test: MSD-SET; IgG4 from mammalian cells
[8] = target: T4, recombinant human LRRC33-proTGFβ1 …; test: MSD-SET; IgG4 from mammalian cells
[9] = target: T1, recombinant human LTBP1-proTGFβ1 complex; test: cell-based or functional assay
[10] = target: human GARP-proTGFβ1 complex presented on the cell surface (human, UniProt Q14392 20-662; P01137 30-390); test: cell-based or functional assay
[11] = target: T3, recombinant human LTBP3-proTGFβ1 complex; test: cell-based or functional assay
[12] = target: human LRRC33-proTGFβ1 complex presented on the cell surface (human, UniProt Q86YC3 19-692; P01137 30-390); test: cell-based or functional assay

T1 sequence (Q14766 347-1721 limits assumed, chain 1 of 2): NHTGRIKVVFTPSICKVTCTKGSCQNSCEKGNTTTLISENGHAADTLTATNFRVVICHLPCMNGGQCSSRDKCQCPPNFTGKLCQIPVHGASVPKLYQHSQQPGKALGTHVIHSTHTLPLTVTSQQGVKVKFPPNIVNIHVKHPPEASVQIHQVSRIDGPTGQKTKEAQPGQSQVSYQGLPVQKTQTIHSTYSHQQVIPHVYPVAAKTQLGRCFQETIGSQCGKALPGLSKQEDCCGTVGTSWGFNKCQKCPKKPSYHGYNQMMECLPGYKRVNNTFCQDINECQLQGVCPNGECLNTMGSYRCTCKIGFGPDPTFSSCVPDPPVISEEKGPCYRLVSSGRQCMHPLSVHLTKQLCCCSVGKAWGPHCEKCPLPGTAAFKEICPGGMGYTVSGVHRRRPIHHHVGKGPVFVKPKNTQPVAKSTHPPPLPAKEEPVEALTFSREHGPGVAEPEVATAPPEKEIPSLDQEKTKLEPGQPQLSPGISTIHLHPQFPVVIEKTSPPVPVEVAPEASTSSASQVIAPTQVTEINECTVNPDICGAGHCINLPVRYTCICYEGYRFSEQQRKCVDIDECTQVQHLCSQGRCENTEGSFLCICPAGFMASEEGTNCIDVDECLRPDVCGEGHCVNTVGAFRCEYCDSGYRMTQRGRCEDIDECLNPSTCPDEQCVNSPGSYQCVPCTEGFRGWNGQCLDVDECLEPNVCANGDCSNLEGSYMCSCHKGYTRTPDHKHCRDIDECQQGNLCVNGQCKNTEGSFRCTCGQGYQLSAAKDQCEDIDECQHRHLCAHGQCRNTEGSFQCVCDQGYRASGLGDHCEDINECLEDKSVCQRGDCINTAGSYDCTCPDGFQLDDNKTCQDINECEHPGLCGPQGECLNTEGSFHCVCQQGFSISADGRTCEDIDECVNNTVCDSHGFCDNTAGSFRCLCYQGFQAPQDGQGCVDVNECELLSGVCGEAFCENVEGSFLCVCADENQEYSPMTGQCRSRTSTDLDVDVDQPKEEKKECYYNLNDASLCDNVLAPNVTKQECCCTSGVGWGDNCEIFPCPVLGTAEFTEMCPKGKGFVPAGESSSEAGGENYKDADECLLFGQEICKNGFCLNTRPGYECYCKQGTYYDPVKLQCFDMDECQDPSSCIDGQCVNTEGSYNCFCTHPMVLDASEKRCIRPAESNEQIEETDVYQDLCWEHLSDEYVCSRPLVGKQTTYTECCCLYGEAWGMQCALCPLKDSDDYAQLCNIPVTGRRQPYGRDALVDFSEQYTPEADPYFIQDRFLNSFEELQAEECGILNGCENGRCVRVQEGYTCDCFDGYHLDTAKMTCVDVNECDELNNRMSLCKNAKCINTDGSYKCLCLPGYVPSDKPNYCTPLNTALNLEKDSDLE
T1 sequence (P01137 30-390 limits assumed, chain 2 of 2): as the sequence (P01137 30-390 limits assumed, chain 2 of 2) above

B1: Ab3 (antibody, V domains shown)
VH: EVQLLESGGGLVQPGGSLRLSCAASGFTFRNYAMSWVRQAPGKGLEWVSSISGSGGATYYADSVKGRFTISRDNSKNTLYLQMNSLRAEDTAVYYCARVSSGHWDFDYWGQGTLVTVSS
VL: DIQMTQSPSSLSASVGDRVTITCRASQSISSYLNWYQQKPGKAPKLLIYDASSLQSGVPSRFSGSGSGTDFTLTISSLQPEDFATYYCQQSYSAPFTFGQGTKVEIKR
In the case of B1, the Kd [1] is reported as 0.47 nM, the Kd [2] is reported as 17.3 nM and the Kd [3] is reported as 0.459 nM. The Kd [4] was 8.52 nM, the Kd [5] was 13 nM and the Kd [6] was 28 nM. For the same binder, the Kd [7] was 16.2 nM, the Kd [8] was 35 nM and the “IC50 (nM), cell-based potency assay, CAGA12 luciferase reporter” value (shortened to “IC50 (nM), cell-based potency assay”) [9] was 24.3 nM. For the same binder, the “IC50 (nM), cell-based potency assay” value [10] was 0.981 nM, the “IC50 (nM), cell-based potency assay” value [11] was 10.4 nM and the “IC50 (nM), cell-based potency assay” value [12] was 0.858 nM.
